The target of test [1] is T1, Recombinant Human DLL4 (R&D Systems Cat#1506-D4/CF) (human, UniProt Q9NR61 27-524).
T1 construct: bought recombinant protein; also called rHuman DLL4; delta-like protein 4
Put plainly: ELISA titration, 2-fold dilutions from 20 nM Fab.

Test [2] deals with T2, Recombinant Human DLL4 (delta-like protein 4) (human, UniProt Q9NR61 27-524).
T2 construct: Bought recombinant protein (R&D Systems Cat#1506-D4/CF) coated on the ELISA plate; also called rHuman DLL4; Delta-like 4
Put plainly: ELISA, DLL4 coated on plate, Fab at 20 nM, absorbance at 450 nm.

For test [3], the target named is T2, Recombinant Human DLL4 (delta-like …). The test can be described thus: ELISA, DLL4 coated on plate, Fab at 0.31 nM, absorbance at 450 nm.
The target is the same in test [4]. Put plainly: ELISA, DLL4 coated on plate, Fab at 2.5 nM, absorbance at 450 nm.
The target is the same in test [5]. Put plainly: ELISA, DLL4 coated on plate, Fab at 1.3 nM, absorbance at 450 nm. Background: ELISA stands for enzyme-linked immunosorbent assay.
Test [6] shares this target. Put plainly: ELISA, DLL4 coated on plate, Fab at 10 nM, absorbance at 450 nm.
Test [7] has the same target. The test can be described thus: ELISA, DLL4 coated on plate, Fab at 0.63 nM, absorbance at 450 nm.
For test [8] the target is unchanged. The test can be described thus: ELISA, DLL4 coated on plate, Fab at 5 nM, absorbance at 450 nm.
Test [9] shares this target. Put plainly: ELISA, DLL4 coated on plate, Fab at 0.16 nM, absorbance at 450 nm.
The target of test [10] is T3, Recombinant Human DLL4 (human, UniProt Q9NR61 27-524).
T3 construct: also called delta-like protein 4; rHuman DLL4
The test can be described thus: ECL (MSD) multispot binding assay, DLL4 spotted on plate, Fab in solution.

B1: Fab VH1-46_IGHD6-6*01_IGHJ1*01 S102A/S103P/S104F/H111F I51E/N52L/S54T/G56H & L6_IGKJ1*01 (Fab, V domains shown)
VH: QVQLVQSGAEVKKPGASVKVSCKASGYTFTSYYMHWVRQAPGQGLEWMGIELPTGHSTSYAQKFQGRVTMTRDTSTSTVYMELSSLRSEDTAVYYCAREEYAPFSAEYFQFWGQGTLVTVSS
VL: not shown
notes: Fab; also called APFF ELTH
As usually defined, the Kd is a measure of binding affinity in units of concentration. Turning to B1, the Kd in test [1] is 1 to 10 nM.

B2: Fab VH1-46_IGHD6-6*01_IGHJ1*01 S102A/S103P/S104F/H111F/N52L/S54T/G56H (APFF LTH) & L6_IGKJ1*01 (Fab, V domains shown)
VH: QVQLVQSGAEVKKPGASVKVSCKASGYTFTSYYMHWVRQAPGQGLEWMGIILPTGHSTSYAQKFQGRVTMTRDTSTSTVYMELSSLRSEDTAVYYCAREEYAPFSAEYFQFWGQGTLVTVSS
VL: not shown
notes: Tested as a Fab made in E. coli: VH cloned into Plasmid A (CH1, His6 and Flag tags), kappa VL into Plasmid C (kappa CL); also called H:APFF LTH & L:wt
In the case of B2, the ELISA signal in test [2] stood at 2.4; in test [3] it was 2.4; in test [4] it was 2.15; in test [5], 0.653; in [6], 2.35; in [7], 1.37. The ELISA signal in [8] was 2.48; in [9], 2.35.

B3: Fab VH1-46_IGHD6-6*01_IGHJ1*01 S102A/S103P/S104F/H111F/I51E/N52L/S54T/G56H (APFF ELTH) & L6_IGKJ1*01 (Fab, V domains shown)
VH: QVQLVQSGAEVKKPGASVKVSCKASGYTFTSYYMHWVRQAPGQGLEWMGIELPTGHSTSYAQKFQGRVTMTRDTSTSTVYMELSSLRSEDTAVYYCAREEYAPFSAEYFQFWGQGTLVTVSS
VL: not shown
notes: Tested as a Fab made in E. coli: VH in Plasmid A (CH1, His6 and Flag tags), kappa VL in Plasmid C (kappa CL)
Regarding B3, the ELISA signal in test [2] came to 2.29; in test [3] it was 2.29; in test [4], 1.98; in test [5], 0.402; in test [6] it was 2.17; in [7], 1.01. In addition, the ELISA signal in [8] turned out to be 2.33; in test [9], 2.17.

B4: Fab VH1-46_IGHD6-6*01_IGHJ1*01 S102A/S103P/S104F/H111F N52L/S54T/G56H & L6_IGKJ1*01 (Fab, V domains shown)
VH: QVQLVQSGAEVKKPGASVKVSCKASGYTFTSYYMHWVRQAPGQGLEWMGIILPTGHSTSYAQKFQGRVTMTRDTSTSTVYMELSSLRSEDTAVYYCAREEYAPFSAEYFQFWGQGTLVTVSS
VL: not shown
notes: Fab; also called H:APFF LTH & L:wt; APFF LTH
Turning to B4, in test [1], the Kd is 1 to 10 nM.

B5: Fab VH1-46_IGHD6-6*01_IGHJ1*01 S102A/S103P/S104F/H111F (APFF) & L6_IGKJ1*01 W94S (Fab, V domains shown)
VH: QVQLVQSGAEVKKPGASVKVSCKASGYTFTSYYMHWVRQAPGQGLEWMGIINPSGGSTSYAQKFQGRVTMTRDTSTSTVYMELSSLRSEDTAVYYCAREEYAPFSAEYFQFWGQGTLVTVSS
VL: EIVLTQSPATLSLSPGERATLSCRASQSVSSYLAWYQQKPGQAPRLLIYDASNRATGIPARFSGSGSGTDFTLTISSLEPEDFAVYYCQQRSNSPPWTFGQGTKVEIKR
notes: Fab from E. coli; VH in Plasmid A (CH1, His6 and Flag tags), VL in Plasmid C (kappa CL); also called APFF & W94S
On to B5, for which the “ECL signal” value in test [10] is 109000.

B6: Fab VH1-46_IGHD6-6*01_IGHJ1*01 S102A/S103P/S104F/H111F I51T/N52L/P53A/S54T/G56H & L6_IGKJ1*01 (Fab, V domains shown)
VH: QVQLVQSGAEVKKPGASVKVSCKASGYTFTSYYMHWVRQAPGQGLEWMGITLATGHSTSYAQKFQGRVTMTRDTSTSTVYMELSSLRSEDTAVYYCAREEYAPFSAEYFQFWGQGTLVTVSS
VL: not shown
notes: Fab; also called APFF TLATH
Consider B6, for which the Kd in test [1] was > 100 nM.

B7: Fab VH1-46_IGHD6-6*01_IGHJ1*01 S102A/S103P/S104F/H111F (APFF) & L6_IGKJ1*01 W94T (Fab, V domains shown)
VH: QVQLVQSGAEVKKPGASVKVSCKASGYTFTSYYMHWVRQAPGQGLEWMGIINPSGGSTSYAQKFQGRVTMTRDTSTSTVYMELSSLRSEDTAVYYCAREEYAPFSAEYFQFWGQGTLVTVSS
VL: EIVLTQSPATLSLSPGERATLSCRASQSVSSYLAWYQQKPGQAPRLLIYDASNRATGIPARFSGSGSGTDFTLTISSLEPEDFAVYYCQQRSNTPPWTFGQGTKVEIKR
notes: Fab from E. coli; VH in Plasmid A (CH1, His6 and Flag tags), VL in Plasmid C (kappa CL); also called APFF & W94T
With B7, in test [10], the “ECL signal” value was determined as 23200.

B8: Fab VH1-46_IGHD6-6*01_IGHJ1*01 S102A/S103P/S104F/H111F/I51T/N52L/P53A/S54T/G56H (APFF TLATH) & L6_IGKJ1*01 (Fab, V domains shown)
VH: QVQLVQSGAEVKKPGASVKVSCKASGYTFTSYYMHWVRQAPGQGLEWMGITLATGHSTSYAQKFQGRVTMTRDTSTSTVYMELSSLRSEDTAVYYCAREEYAPFSAEYFQFWGQGTLVTVSS
VL: not shown
notes: as for B3
For the molecule B8, the ELISA signal amounted to 1.11 in test [2]; 1.11 in test [3]; 0.592 in test [4]; 0.078 in test [5]; 0.875 in [6]; 0.227 in test [7]. For the same molecule, the ELISA signal in test [8] came out at 1.27; in test [9] it was 0.875.

Source of the values: patent publication US20120316071A1 (published 2012).
